Experimental data taken from paper PMC11551755, “Structure-based discovery of first inhibitors targeting the helicase activity of human PIF1” (Nucleic Acids Research, 2024).

Tests used:
[1] = biological target: T1, hPIF1HD V258A (Homo sapiens, UniProt Q9H611 206-620, V258A); assay: EMSA; 5 mM AMP-PNP, 5.5 mM MgCl2; no inhibitor; 20 mM HEPES-NaOH pH 7.5, 20 mM NaCl, 5.5 mM MgCl2, 5 mM AMP-PNP, 1 mM DTT, 0.1 mg/ml BSA; 0.25 nM DNA; binding temperature not stated explicitly (helicase assay conditions 37 C); 5% PAGE, 0.25x TBE; conditions: protein: recombinant; tags: N-terminal His6 removed; GSRM cloning residues remain; label: 5'-32P; single strand
T1 sequence: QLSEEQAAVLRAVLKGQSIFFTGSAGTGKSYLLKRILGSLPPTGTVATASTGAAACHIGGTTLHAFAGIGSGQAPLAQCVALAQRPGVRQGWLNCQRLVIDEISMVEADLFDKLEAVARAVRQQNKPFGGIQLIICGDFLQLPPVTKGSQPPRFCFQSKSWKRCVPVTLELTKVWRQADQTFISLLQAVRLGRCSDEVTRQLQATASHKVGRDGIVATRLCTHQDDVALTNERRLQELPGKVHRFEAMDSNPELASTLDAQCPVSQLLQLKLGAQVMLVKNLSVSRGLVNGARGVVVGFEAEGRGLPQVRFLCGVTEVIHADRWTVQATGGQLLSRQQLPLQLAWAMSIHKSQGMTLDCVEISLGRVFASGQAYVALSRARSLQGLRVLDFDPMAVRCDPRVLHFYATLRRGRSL

[2] = biological target: T2, hPIF1HD V258L (Homo sapiens, UniProt Q9H611 206-620, V258L); assay: as above; conditions: protein: recombinant; tags: N-terminal His6 removed; GSRM cloning residues remain; label: 5'-32P; single strand
T2 sequence: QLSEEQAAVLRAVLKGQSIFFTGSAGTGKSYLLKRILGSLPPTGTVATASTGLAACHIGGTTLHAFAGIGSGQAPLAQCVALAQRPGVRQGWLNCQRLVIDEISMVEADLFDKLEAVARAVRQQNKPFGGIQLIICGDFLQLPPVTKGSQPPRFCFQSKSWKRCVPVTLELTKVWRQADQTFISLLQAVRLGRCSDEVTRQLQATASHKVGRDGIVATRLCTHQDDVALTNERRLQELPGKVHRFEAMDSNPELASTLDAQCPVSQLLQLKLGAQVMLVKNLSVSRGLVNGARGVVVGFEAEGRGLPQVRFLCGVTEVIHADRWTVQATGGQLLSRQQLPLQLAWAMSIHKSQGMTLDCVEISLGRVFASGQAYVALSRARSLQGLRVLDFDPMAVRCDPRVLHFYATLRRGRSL

B1: oligo d(T)55 (ssDNA)
DNA: TTTTTTTTTTTTTTTTTTTTTTTTTTTTTTTTTTTTTTTTTTTTTTTTTTTTTTT
With B1 the binding signal [1] was about 2 fold reduced vs wild type and the binding signal [2] was ~1 fold vs wild type (near equivalent).
